Measurements as given in patent publication US20240270821A1, “GIP/GLP1/GCG TRI-RECEPTOR AGONISTS AND USES THEREOF” (priority 2023, published 2024).

T1: human GIP receptor (human) (UniProt P48546)
T1 sequence (looked up): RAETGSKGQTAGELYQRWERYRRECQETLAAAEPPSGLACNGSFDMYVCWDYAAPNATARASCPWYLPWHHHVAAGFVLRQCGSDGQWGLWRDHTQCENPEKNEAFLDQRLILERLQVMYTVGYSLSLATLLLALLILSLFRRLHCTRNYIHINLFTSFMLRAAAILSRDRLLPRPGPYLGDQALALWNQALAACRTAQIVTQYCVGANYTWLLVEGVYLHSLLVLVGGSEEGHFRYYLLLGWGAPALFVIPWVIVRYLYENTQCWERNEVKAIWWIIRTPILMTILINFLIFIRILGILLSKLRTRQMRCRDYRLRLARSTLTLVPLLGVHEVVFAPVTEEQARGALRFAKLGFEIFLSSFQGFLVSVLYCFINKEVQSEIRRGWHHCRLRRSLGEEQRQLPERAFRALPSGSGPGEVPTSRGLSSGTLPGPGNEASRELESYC


Legend:
Test in all cases: cell-based or functional assay
[1] = target: human glucagon receptor (human) (UniProt P47871)
Chain of human glucagon receptor (human) (P47871 26-477): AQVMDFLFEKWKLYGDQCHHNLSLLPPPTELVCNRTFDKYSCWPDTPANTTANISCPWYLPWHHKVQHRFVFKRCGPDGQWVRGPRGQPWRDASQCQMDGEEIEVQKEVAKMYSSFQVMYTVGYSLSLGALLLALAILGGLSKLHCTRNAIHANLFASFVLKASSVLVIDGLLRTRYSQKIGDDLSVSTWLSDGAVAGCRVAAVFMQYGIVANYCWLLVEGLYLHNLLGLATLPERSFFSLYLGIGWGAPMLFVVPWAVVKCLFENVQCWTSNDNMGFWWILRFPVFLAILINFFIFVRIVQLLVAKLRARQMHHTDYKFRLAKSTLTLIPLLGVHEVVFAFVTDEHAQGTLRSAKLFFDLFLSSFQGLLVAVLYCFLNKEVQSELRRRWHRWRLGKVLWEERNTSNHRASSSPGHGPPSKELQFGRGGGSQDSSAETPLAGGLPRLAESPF

[2] = target: hGLP-1R (Homo sapiens, UniProt P43220)
Chain of hGLP-1R (P43220 24-463): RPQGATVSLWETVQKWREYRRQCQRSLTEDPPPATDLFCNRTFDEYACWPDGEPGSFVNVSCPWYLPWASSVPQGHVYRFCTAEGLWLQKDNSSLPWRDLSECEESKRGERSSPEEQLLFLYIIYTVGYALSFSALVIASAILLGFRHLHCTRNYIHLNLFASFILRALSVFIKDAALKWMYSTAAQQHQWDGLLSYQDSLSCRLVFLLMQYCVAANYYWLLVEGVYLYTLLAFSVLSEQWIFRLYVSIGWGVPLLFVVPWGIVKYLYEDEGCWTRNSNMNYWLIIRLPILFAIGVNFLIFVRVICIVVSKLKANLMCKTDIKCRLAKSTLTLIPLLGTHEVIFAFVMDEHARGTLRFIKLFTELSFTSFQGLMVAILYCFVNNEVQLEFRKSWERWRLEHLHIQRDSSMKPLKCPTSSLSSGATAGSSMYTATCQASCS

[3] = target: T1, human GIP receptor (human)

| Binder | cAMP Rel EC50 (1% HSA) [1] [nM] | cAMP Rel EC50 (1% HSA) [2] [nM] | cAMP Rel EC50 (1% HSA) [3] [nM] | other results |
| --- | --- | --- | --- | --- |
| YXQGTFTSDFSQXLDKKAQXAFIEXLIEXGPSSGAPPPSGS (non-natural residues; acylated Lys C18 diacid; C-term amide; synthetic construct; SITE 2: note = 2-Aminoisobutyric Acid; SITE 13: note = alpha-methyl-leucine; SITE 17: note = Lysine is chemically modified through conjugation of the epsilon-amino group of the Lysine side chain with (2-[2-(2-Amino-ethoxy)-ethoxy]-acetyl)-(gamma-Glu)-CO-(CH2) 16-CO2H; SITE 20: n) [Example 913] | 1140 | 258 | 5.62 | – |
| YXQGTFTSDXSQXLDKKAQXAFIEXLIEGGPSSGAPPPSGS (Aib, 4Pal, Me4Pal, αMeL; lipidated Lys; C-terminal amide; synthetic construct; SITE 2: note = 2-Aminoisobutyric Acid; SITE 10: note = 3-(4-Pyridyl)-L-alanine; SITE 13: note = alpha-methyl-leucine; SITE 17: note = Lysine is chemically modified through conjugation of the epsilon-amino group of the Lysine side chain with (gamma-Glu)2-CO-(CH2)16-CO2H; SITE 20:) [Example 951] | – | – | – | cAMP Rel EC50, nM (1% HSA) [1]: 657 nM; cAMP Rel EC50, nM (1% HSA) [2]: 382 nM; cAMP Rel EC50, nM (1% HSA) [3]: 18.2 nM |
| YXQGTFTSDXSQXLDKKAQXAFIEYLIEXGPSSGAPPPSGS (Aib, 4Pal, αMeL, Me4Pal; acylated Lys; C-terminal amide; synthetic construct; SITE 2: note = 2-Aminoisobutyric Acid; SITE 10: note = 3-(4-Pyridyl)-L-alanine; SITE 13: note = alpha-methyl-leucine; SITE 17: note = Lysine is chemically modified through conjugation of the epsilon-amino group of the Lysine side chain with (D-Glutamic acid)2-(gamma-Glu)-CO-(CH2)) [Example 921] | 2130 | 261 | 12.4 | – |
| YXQGTFTSDXSXXLDXKAQXAFIEXLLEGGPSSGAPPPSGS (non-natural residues; lysine acylated AEEA-γGlu-C18 diacid; C-terminal amide; synthetic construct; SITE 2: note = 2-Aminoisobutyric Acid; SITE 10: note = 3-(4-Pyridyl)-L-alanine; SITE 12: note = L-ornithine; SITE 13: note = alpha-methyl-leucine; SITE 16: note = L-ornithine; SITE 17: note = Lysine is chemically modified through conjugation of the epsilon-amino group of the Lys) [Example 933] | 1530 | 557 | 35.1 | Relative cAMP EC50 [1]: 5.51 nM; Relative cAMP EC50 [2]: 2.32 nM; Relative cAMP EC50 [3]: 0.259 nM |
| YXQGTFTSDXSQXLDKKAQXAFIEXLLEGGPSSGAPPPSGS (non-natural residues; lipidated Lys; C-terminal amide; synthetic construct; SITE 2: note = 2-Aminoisobutyric Acid; SITE 10: note = 3-(4-Pyridyl)-L-alanine; SITE 13: note = alpha-methyl-leucine; SITE 17: note = Lysine is chemically modified through conjugation of the epsilon-amino group of the Lysine side chain with (2-[2-(2-Amino-ethoxy)-ethoxy]-acetyl)) [Example 910] | 2640 | 239 | 25.7 | Relative cAMP EC50 [1]: 9.76 nM; Relative cAMP EC50 [2]: 1.49 nM; Relative cAMP EC50 [3]: 0.111 nM |
| YXQGTFTSDXSQXLDKKAQXAFIEXLIEGGPSSGAPPPSGS (Aib, 4Pal, Me4Pal, alpha-methyl-Leu, lipidated Lys, amide; synthetic construct; SITE 2: note = 2-Aminoisobutyric Acid; SITE 10: note = 3-(4-Pyridyl)-L-alanine; SITE 13: note = alpha-methyl-leucine; SITE 17: note = Lysine is chemically modified through conjugation of the epsilon-amino group of the Lysine side chain with (2-[2-(2-Amino-ethoxy)-ethoxy]-acetyl)) [Example 948] | 537 | 304 | 22.9 | – |
| YXQGTFTSDXSQXLDKKAQXAFIEYLIEXGPSSGAPPPSGS (Lys acylated γGlu-C18 diacid; non-natural residues; C-amide; synthetic construct; SITE 2: note = 2-Aminoisobutyric Acid; SITE 10: note = 3-(4-Pyridyl)-L-alanine; SITE 13: note = alpha-methyl-leucine; SITE 17: note = Lysine is chemically modified through conjugation of the epsilon-amino group of the Lysine side chain with (gamma-Glu)-(D-Glutamic acid)2-CO-(CH2)) [Example 922] | 1170 | 357 | 6.39 | – |
| YXQGTFTSDXSQXLDKKAQXAFIEYLIEXGPSSGAPPPSGS (non-natural residues; C18 diacid-γGlu-e on Lys; C-terminal amide; synthetic construct; SITE 2: note = 2-Aminoisobutyric Acid; SITE 10: note = 3-(4-Pyridyl)-L-alanine; SITE 13: note = alpha-methyl-leucine; SITE 17: note = Lysine is chemically modified through conjugation of the epsilon-amino group of the Lysine side chain with D-Glutamic acid-(gamma-Glu)-CO-(CH2)16) [Example 920] | 1090 | 322 | 9.05 | – |
| YXQGTFTSDFSKXLDKKAQXAFIEXLIEXGPSSGAPPPSGS (non-natural residues, AEEA-γGlu-C18 diacid lysine acylation, C-terminal amide; synthetic construct; SITE 2: note = 2-Aminoisobutyric Acid; SITE 13: note = alpha-methyl-leucine; SITE 17: note = Lysine is chemically modified through conjugation of the epsilon-amino group of the Lysine side chain with (2-[2-(2-Amino-ethoxy)-ethoxy]-acetyl)-(gamma-Glu)-CO-(CH2) 16-CO2H; SITE 20: n) [Example 912] | 955 | 59.6 | 6.15 | – |
| YXQGTFTSDXSKXLDKKAQXAFIEXLIEXGPSSGAPPPSGS (Aib, 4Pal, αMeL, Me4Pal; acylated Lys; C-terminal amide; synthetic construct; SITE 2: note = 2-Aminoisobutyric Acid; SITE 10: note = 3-(4-Pyridyl)-L-alanine; SITE 13: note = alpha-methyl-leucine; SITE 17: note = Lysine is chemically modified through conjugation of the epsilon-amino group of the Lysine side chain with (2-[2-(2-Amino-ethoxy)-ethoxy]-acetyl)) [Example 914] | 983 | 91.7 | 5.94 | – |
| YXQGTFTSDXSXXLDKKAQXAFIEXLIEGGPSSGAPPPSGS (acylated Lys, C-terminal amide, non-natural residues; synthetic construct; SITE 2: note = 2-Aminoisobutyric Acid; SITE 10: note = 3-(4-Pyridyl)-L-alanine; SITE 12: note = L-ornithine; SITE 13: note = alpha-methyl-leucine; SITE 17: note = Lysine is chemically modified through conjugation of the epsilon-amino group of the Lysine side chain with (gamma-Gl)) [Example 952] | – | – | – | cAMP Rel EC50, nM (1% HSA) [1]: 266 nM; cAMP Rel EC50, nM (1% HSA) [2]: 439 nM; cAMP Rel EC50, nM (1% HSA) [3]: 16.6 nM |
| YXQGTFTSDXSQXLDKKAQXAFIEYLIEXGPSSGAPPPSGSE (C-terminal amide; lysine acylated with γ-Glu-C18 diacid; synthetic construct; SITE 2: note = 2-Aminoisobutyric Acid; SITE 10: note = 3-(4-Pyridyl)-L-alanine; SITE 13: note = alpha-methyl-leucine; SITE 17: note = Lysine is chemically modified through conjugation of the epsilon-amino group of the Lysine side chain with D-Glutamic acid-(gamma-Glu)-CO-(CH2)16) [Example 924] | 910 | 402 | 15.7 | – |
| YXQGTFTSDXSQXLDKKAQXAFIEYLIEXGPSSGAPPPSGSE (acylated lysine γGlu-C18 diacid; non-natural residues; C-terminal amide; synthetic construct; SITE 2: note = 2-Aminoisobutyric Acid; SITE 10: note = 3-(4-Pyridyl)-L-alanine; SITE 13: note = alpha-methyl-leucine; SITE 17: note = Lysine is chemically modified through conjugation of the epsilon-amino group of the Lysine side chain with (D-Glutamic acid)2-(gamma-Glu)-CO-(CH2)) [Example 925] | 2500 | 708 | 23 | – |
| YXQGTFTSDXSQXLDKKAQXAFIEYLIEXGPSSGAPPPSGSE (γGlu-C18 diacid on Lys; non-natural residues; amide; synthetic construct; SITE 2: note = 2-Aminoisobutyric Acid; SITE 10: note = 3-(4-Pyridyl)-L-alanine; SITE 13: note = alpha-methyl-leucine; SITE 17: note = Lysine is chemically modified through conjugation of the epsilon-amino group of the Lysine side chain with (gamma-Glu)-(D-Glutamic acid)2-CO-(CH2)) [Example 926] | 1380 | 600 | 13.5 | – |
| YXQGTFTSDXSQXLDKKAQXAFIEYLIEXGPSSGAPPPSGSE (Aib, 4Pal, Me4Pal, alpha-methyl-Leu, lipidated Lys, amide; synthetic construct; SITE 2: note = 2-Aminoisobutyric Acid; SITE 10: note = 3-(4-Pyridyl)-L-alanine; SITE 13: note = alpha-methyl-leucine; SITE 17: note = Lysine is chemically modified through conjugation of the epsilon-amino group of the Lysine side chain with D-Glutamic acid-(gamma-Glu)-D-Glutamic) [Example 927] | 1210 | 584 | 22.2 | – |
| YXQGTFTSDFSXXLDKKAQXAFIEYLLAGGPSSGAPPPSGEX (synthetic construct; SITE 2: note = 2-Aminoisobutyric Acid; SITE 12: note = L-ornithine; SITE 13: note = alpha-methyl-leucine; SITE 17: note = Lysine is chemically modified through conjugation of the epsilon-amino group of the Lysine side chain with (2-[2-(2-Amino-ethoxy)-ethoxy]-acetyl)-(gamma-Glu)) [Example 91] | – | – | – | Relative cAMP EC50 [1]: 9.13 nM; cAMP Rel EC50, nM (in the presence of 1% HSA) [1]: 1200 nM; Relative cAMP EC50 [2]: 3.39 nM; cAMP Rel EC50, nM (in the presence of 1% HSA) [2]: 356 nM; Relative cAMP EC50 [3]: 0.243 nM; cAMP Rel EC50, nM (in the presence of 1% HSA) [3]: 23.9 nM |
| YXQGTFTSDXSQXLDKKAQXAFIEYLIEXGPSSGAPPPSEG (non-natural residues; lipidated Lys AEEA-γGlu-C18 diacid; synthetic construct; SITE 2: note = 2-Aminoisobutyric Acid; SITE 10: note = 3-(4-Pyridyl)-L-alanine; SITE 13: note = alpha-methyl-leucine; SITE 17: note = Lysine is chemically modified through conjugation of the epsilon-amino group of the Lysine side chain with (2-[2-(2-Amino-ethoxy)-ethoxy]-acetyl)) [Example 918] | 590 | 484 | 18 | – |
| YXQGTFTSDXSQXLDKKAQXAFIEYLIEXGPSSGAPPPSEE (non-natural residues; lipidated Lys; D-Glu; synthetic construct; SITE 2: note = 2-Aminoisobutyric Acid; SITE 10: note = 3-(4-Pyridyl)-L-alanine; SITE 13: note = alpha-methyl-leucine; SITE 17: note = Lysine is chemically modified through conjugation of the epsilon-amino group of the Lysine side chain with (2-[2-(2-Amino-ethoxy)-ethoxy]-acetyl)) [Example 919] | 467 | 454 | 25.8 | – |
